This note sets out measurements from publication PMC10842004.

Test [1] deals with FLAG-RAD23A lacking UBA1 (human) (UniProt P54725). The experiment in a line: co-IP.
Test [2] addresses single point mutations in RAD23A UBA1 or UBA2 (as tested with Pol ι). Kind of test: co-IP.
In test [3] the target is His Pol ι aa 1–419 (catalytic domain of Pol ι) (human). Kind of test: MST.
The target of test [4] is single point mutations in RAD23A UBA1 or UBA2 (as tested with Rev1). Kind of test: co-IP.
For test [5], the target named is single point mutations in RAD23A UBA1 or UBA2 (as tested with Pol κ). The experiment in a line: co-IP.

Where “and” joins values, the source holds several entries; their conditions need not be identical. Equal values may be shown once.

Sequence of HA-tagged Pol κ (Q9UBT6 whole entry): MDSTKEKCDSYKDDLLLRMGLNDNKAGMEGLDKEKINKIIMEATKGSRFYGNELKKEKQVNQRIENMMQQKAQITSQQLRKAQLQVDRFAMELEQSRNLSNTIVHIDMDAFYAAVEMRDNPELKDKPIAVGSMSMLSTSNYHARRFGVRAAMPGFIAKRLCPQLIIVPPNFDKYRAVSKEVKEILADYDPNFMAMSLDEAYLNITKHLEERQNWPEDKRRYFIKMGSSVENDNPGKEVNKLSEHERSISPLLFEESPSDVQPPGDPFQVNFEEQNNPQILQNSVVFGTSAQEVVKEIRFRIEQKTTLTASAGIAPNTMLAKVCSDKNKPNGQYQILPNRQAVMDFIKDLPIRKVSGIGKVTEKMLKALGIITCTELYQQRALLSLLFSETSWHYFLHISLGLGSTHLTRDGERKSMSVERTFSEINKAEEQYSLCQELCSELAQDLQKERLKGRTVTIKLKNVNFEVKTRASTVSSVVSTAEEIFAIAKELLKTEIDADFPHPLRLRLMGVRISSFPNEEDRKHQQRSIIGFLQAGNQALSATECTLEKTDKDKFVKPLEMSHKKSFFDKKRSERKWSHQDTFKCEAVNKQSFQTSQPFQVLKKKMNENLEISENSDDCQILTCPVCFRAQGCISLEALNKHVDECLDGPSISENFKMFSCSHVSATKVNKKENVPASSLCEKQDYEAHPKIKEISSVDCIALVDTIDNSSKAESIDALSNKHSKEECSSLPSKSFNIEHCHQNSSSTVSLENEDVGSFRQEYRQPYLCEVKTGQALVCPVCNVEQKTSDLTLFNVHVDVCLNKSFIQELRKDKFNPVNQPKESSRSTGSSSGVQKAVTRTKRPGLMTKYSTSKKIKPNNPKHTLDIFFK
Sequence of HA-tagged REV1 (Q9UBZ9 whole entry): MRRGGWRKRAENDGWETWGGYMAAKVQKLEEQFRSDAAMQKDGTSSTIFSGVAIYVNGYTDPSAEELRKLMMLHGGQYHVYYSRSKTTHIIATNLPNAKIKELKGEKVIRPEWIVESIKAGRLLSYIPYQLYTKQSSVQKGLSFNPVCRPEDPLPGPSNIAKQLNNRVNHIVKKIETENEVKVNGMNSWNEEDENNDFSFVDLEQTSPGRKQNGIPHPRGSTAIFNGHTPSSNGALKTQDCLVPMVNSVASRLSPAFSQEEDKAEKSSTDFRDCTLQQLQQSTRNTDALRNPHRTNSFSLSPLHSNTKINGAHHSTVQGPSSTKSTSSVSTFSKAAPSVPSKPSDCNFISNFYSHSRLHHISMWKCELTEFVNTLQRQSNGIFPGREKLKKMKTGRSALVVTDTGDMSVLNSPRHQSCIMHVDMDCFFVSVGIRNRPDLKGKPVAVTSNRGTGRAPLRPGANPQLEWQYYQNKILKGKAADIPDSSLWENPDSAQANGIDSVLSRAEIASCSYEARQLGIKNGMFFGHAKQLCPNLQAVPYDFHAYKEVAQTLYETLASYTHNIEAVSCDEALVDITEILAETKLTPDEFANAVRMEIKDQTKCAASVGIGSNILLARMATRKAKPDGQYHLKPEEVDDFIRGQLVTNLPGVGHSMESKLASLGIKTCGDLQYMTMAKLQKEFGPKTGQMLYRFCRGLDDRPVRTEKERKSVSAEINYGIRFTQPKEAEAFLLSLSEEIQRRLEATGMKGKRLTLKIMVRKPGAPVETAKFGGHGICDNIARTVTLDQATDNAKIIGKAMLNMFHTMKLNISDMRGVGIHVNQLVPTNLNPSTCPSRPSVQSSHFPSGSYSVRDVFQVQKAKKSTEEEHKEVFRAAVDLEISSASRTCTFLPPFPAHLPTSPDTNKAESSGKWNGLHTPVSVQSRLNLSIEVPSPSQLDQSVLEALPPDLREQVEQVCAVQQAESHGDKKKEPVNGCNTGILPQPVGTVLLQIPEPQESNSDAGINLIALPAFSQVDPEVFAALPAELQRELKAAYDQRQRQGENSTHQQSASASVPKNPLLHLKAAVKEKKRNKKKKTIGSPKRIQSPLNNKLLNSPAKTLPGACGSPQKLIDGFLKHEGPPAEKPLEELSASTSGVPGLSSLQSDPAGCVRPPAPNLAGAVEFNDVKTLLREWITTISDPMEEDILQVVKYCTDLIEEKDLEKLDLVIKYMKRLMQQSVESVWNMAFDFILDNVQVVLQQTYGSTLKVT

The substance WT HA-Pol ι (enzyme) returned a percent reduction of binding against WT RAD23A in test [1] of 75 to 85%. Besides, in test [2], the percent disruption of binding against WT RAD23A is 40% and 60%. Substance “RAD23A ΔUBL fragment (domain or fragment)” gave a Kd in test [3] of 90 µM. In test [4], “HA-tagged REV1 (from UniProt Q9UBZ9 1-1251) (enzyme)” came in with a percent disruption of binding against WT RAD23A of 70 to 80%. As for “HA-tagged Pol κ (from UniProt Q9UBT6 1-870) (enzyme)”, the percent disruption of binding against WT RAD23A in test [5] was 40% and 60%.

The term Kd denotes the concentration at which binding is half-saturated.
